This is an account of results in patent US20220348668A1 (UNIVERSITE DE FRANCHE COMTE, published 2022).

The term Kd denotes the free concentration of one partner at which half of the binding sites on the other are occupied at equilibrium, for simple one-to-one binding. Read a high Kd as lower affinity. For orientation: koff means a measure of how fast the partners let go of each other. A higher koff goes with fast dissociation. For orientation: kon means a measure of how fast the partners come together.

Test [1] addresses CD123 on cells and tissues (CAL-1, GEN 2.2, PDX and primary BPDCN cells, normal pDC, monocytes, CD34+ cells, endothelial cells) (human) (UniProt P26951). The test is described as follows: flow cytometry on BPDCN cells; mean [minimum-maximum]. A general note: A flow cytometer gives signals particle by particle.
For test [2] the target is unchanged. The test can be described thus: flow cytometry, MFIR = MFI of CD123 staining / MFI of isotype control mAb; cells: lymphocytes, n=12; mean [min-max].
Test [3] has the same target. The test is described as follows: flow cytometry, MFIR = MFI of CD123 staining / MFI of isotype control mAb; cells: CD34 cells, n=7; mean [min-max].
Test [4] shares this target. The test can be described thus: flow cytometry on normal pDC; mean [minimum-maximum].
The target is the same in test [5]. The test can be described thus: flow cytometry, MFIR = MFI of CD123 staining / MFI of isotype control mAb; cells: normal pDC, n=7; mean [min-max].
The target is the same in test [6]. The test is described as follows: flow cytometry, MFIR = MFI of CD123 staining / MFI of isotype control mAb; cells: monocytes, n=12; mean [min-max].
For test [7] the target is unchanged. The test can be described thus: flow cytometry on CD34+ cells; mean [minimum-maximum].
For test [8] the target is unchanged. The test can be described thus: flow cytometry, MFIR = MFI of CD123 staining / MFI of isotype control mAb; cells: polynuclear cells, n=5; mean [min-max].
Test [9] shares this target. The test is described as follows: flow cytometry, MFIR = MFI of CD123 staining / MFI of isotype control mAb; cells: BPDCN, n=3; mean [min-max].
Test [10] shares this target. The test is described as follows: flow cytometry on endothelial HMEC cell line; mean [minimum-maximum].
The target is the same in test [11]. The test can be described thus: flow cytometry on monocytes; mean [minimum-maximum].
Test [12] deals with T1, CD123 (protein in solution in the Octet affinity assay) (human, UniProt P26951 19-305, limits assumed).
T1 construct: also called IL-3Rα; Interleukine-3 Receptor alpha
T1 sequence (looked up): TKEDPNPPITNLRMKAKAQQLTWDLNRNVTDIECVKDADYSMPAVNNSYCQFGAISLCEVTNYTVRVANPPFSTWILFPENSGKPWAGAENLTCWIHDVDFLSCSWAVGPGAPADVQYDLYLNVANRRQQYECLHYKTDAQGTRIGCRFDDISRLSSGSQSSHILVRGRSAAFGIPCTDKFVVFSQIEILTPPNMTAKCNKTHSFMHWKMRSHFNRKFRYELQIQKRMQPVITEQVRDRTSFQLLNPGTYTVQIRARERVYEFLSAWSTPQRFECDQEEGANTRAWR
The test can be described thus: BLI (Octet), antibody on streptavidin biosensor, CD123 25 nM. The method, then:
(§1) Affinity of the antibodies of the invention to CD123 is tested on streptavidin biosensors. Herein, to determine KD values seven different concentrations of CD123 were used on immobilized antibodies of the invention. The results were analyzed according to the Octet system available at FortéBio.
A general note: Biolayer interferometry detects binding as a change in optical thickness at a sensor tip.

The target of test [13] is T1, CD123 (protein in solution in the Octet …). The test is described as follows: BLI (Octet), antibody on streptavidin biosensor, CD123 12.5 nM. The method, then: as §1
Test [14] shares this target. The test is described as follows: BLI (Octet), antibody on streptavidin biosensor, CD123 in solution. The method, then: as §1
Test [15] has the same target. The test can be described thus: BLI (Octet), antibody on streptavidin biosensor, CD123 50 nM. As to the method:
as §1

For test [16] the target is unchanged. The test can be described thus: BLI (Octet), antibody on streptavidin biosensor, CD123 6.25 nM. The method, then: as §1

6H6 commercial antiCD123 antibody: the MFI in test [1] was determined as 11700; in test [4], 34400; in test [7], 874; in test [10], 1250; in test [11] it was 1700. In addition, the MFIR was found to be 2.2 in test [2]; 8 in test [3]; 210 in test [5]; 3.3 in test [6]; 1.5 in test [8]; 42.2 in test [9].

B1: 18B4D5 (antibody, V domains shown)
VH: EVKLQESGPGLVKPSQSLSLTCTVTGYSITSDYTWNWIRQFPGNKLEWMGYISFSGSTSYNPSLKSRLSITRDTSKNQFFLQLNSVTTEDTATYYCARGLDYWGQGTTLTVSS
VL: DIVMTQSPAIMSASLGERVTMTCTASSSISSSYLYWYQQKPGSSPKLWIYSTSNLASGVPARFSGSGSGTSYSLTISSMEAEDAATYYCHQLHRSPWTFGGGTKLEIKR
notes: Mouse hybridoma monoclonal antibody; The tie uses 'at least 85% identity' wording; also called AB1; antiCD123 B4D5
On to B1, for which the Response in test [12] was determined as 0.42; in test [13], 0.23; in test [15] it was 0.697; in test [16], 0.12. The same molecule yielded a Kd in test [14] of less than 0.001 nM. The molecule also yielded a koff in test [14] of less than 1e-07 s⁻¹. For the same molecule, the kon in test [14] stood at 122000 M⁻¹ s⁻¹.

B2: 14G12D7 (antibody, V domains shown)
VH: EVQLQESGPGLVKPSQSLSLTCTVTGYSVTSDYAWNWIRQFPGNKLEWMGYIIYSGTTSYNPSLKSRISITRDTSKNQFFLQLNSVTTEDTATYYCTRGVDYWGQGTTLTVSS
VL: DIVLTQSPAIMSASPGEKVTMTCRASSSVRSSYLHWYQQKSGASPKLWIYSTSNLASGVPARFSGSGSGTSYSLTISSVEAEDAATYYCLQFSGYPFTFGGGTKLEIKR
notes: Mouse hybridoma monoclonal antibody; also called AB4
The molecule B2 displayed a Response in [12] of 0.134. In test [14], the Kd was 8.84 nM, the koff stood at 0.000325 s⁻¹ and the kon worked out at 36700 M⁻¹ s⁻¹. The molecule also yielded a Response in test [15] of 0.221.

B3: 11A12C6 (antibody, V domains shown)
VH: QVQLKESGPGLVAPSQSLSITCTVSGFSLTSYDINWIRQTPGKGLEWLGVIWTGGGTNYNSAFMSRLSISRDNSKSQVFLKMNSLQTDDTAIYYCVRGDGYYWYFDVWGAGTTVTVSS
VL: IVMTQSPSSLAVSAGEKVTMSCKSSQSLFSSSARKNYLAWYQQRPGQSPKLLIYWASTRESGVPDRFTGSGSGTDFTLTIGSVQAEDLAVYYCKQSYSLFTFGSGTKLEIKR
notes: Mouse hybridoma monoclonal antibody; also called AB5
B3 came in with a Response in test [13] of 0.416. In test [14], this molecule showed a Kd of less than 0.001 nM, an off-rate (koff) of less than 1e-07 s⁻¹ and a kon of 326000 M⁻¹ s⁻¹. This molecule had a Response in test [16] of 0.281.

B4: 11B6E6 (antibody, V domains shown)
VH: QVKLEESGPGLVAPSQSLSITCTVSGFSLTSYDISWIRQPPGKGLEWLGVIWTGGGTNYNSAFMSRLSISKDNSKSQVFLKMFSLQTDDTAIYYCVRAHGYYFAMDYWGQGTSVTVSS
VL: DIVLTQSPSSLAVSAGEKVTMRCKSSQSLLNSSTRKNYLAWYQQKPGQSPKLLIYWASTRESGVPDRFTGSGSGTDFTLTISSVQAEDLAVYYCKQSYNLFTFGSGTKLEIKR
notes: Mouse hybridoma monoclonal antibody; also called AB3
As for B4, the Response was 0.179 in test [12], 0.0895 in test [13], 0.316 in [15] and 0.0349 in test [16]. For the same molecule, the Kd in [14] was found to be 9.37 nM. Besides, the koff in test [14] came to 0.000657 s⁻¹. The kon in test [14] was found to be 70100 M⁻¹ s⁻¹.

B5: 15E11B7 (antibody, V domains shown)
VH: EVQLEQSGPELVKPGDSVKISCKASGYSFTGYFMNWVKQSHGKSLEWIGRINPYNDYTFNNQKFKDKATLTVDKSSSTAHMELLSLTSEDSAVYYCGGGVRGAWFAFWGQGTLVTVSE
VL: DIVLTQSTTSLAVSLGQRATISCRASKSVSTSGYNYMHWYQQKPGQPPKLLIYLASNLESGVPARFSGSGSGTDFTLNIHPVEEEDAATYYCQHSADLPYTFGGGTKLEIKR
notes: Mouse hybridoma monoclonal antibody; also called AB6
Consider B5, for which, in test [12], the Response was found to be 0.305. Also, the Response in [13] came out at 0.155. In test [14], the Kd was 2.48 nM, the koff worked out at 0.000826 s⁻¹ and the kon was 332000 M⁻¹ s⁻¹. In [16], this molecule showed a Response of 0.0878.

B6: 17F7B2 (antibody, V domains shown)
VH: EVQLQQSGTVLARPGASVKMSCKASGYSFTSYWMHWVKQRPGQGLEWIGAFYPGKSDTTYNQKFKGKAKLTAVTSASTAYMELSSLTNEDSAVYYCTKGYRYDWFAYWGQGTLVTVSA
VL: DVVMTQTPLSLPVSLGDQASISCRSSQSLVHSNGITYLHWYLQKPGQSPKLLIYKVSNRFSGVPDRFSGSGSGTDFTLKISRVEAEDLGVYFCSQNTHVPFTFGSGTKLEIKR
notes: Mouse hybridoma monoclonal antibody; also called AB2
In the case of B6, the Response in test [12] turned out to be 0.34; in test [13], 0.265; in [15] it was 0.507; in test [16], 0.149. Also, the Kd in [14] was 2.55 nM. This molecule also registered a koff in [14] of 0.000882 s⁻¹. Moreover, the kon in [14] was 346000 M⁻¹ s⁻¹.
